B1: MBP-JMJD7 fusion protein (with a truncated linker) (enzyme, mouse)
chain: MAEAALEAVRRALQEFPAAARDLNVPRVVPYLDEPPSPLCFYRDWVCPNRPCIIRNALQHWPALQKWSLSYLRATVGSTEVSVAVTPDGYADAVRGDRFVMPAERRLPISHVLDVLEGRAQHPGVLYVQKQCSNLPTELPQLLSDIESHVPWASESLGKMPDAVNFWLGDASAVTSLHKDHYENLYCVVSGEKHFLLHPPSDRPFIPYNLYTPATYQLTEEGTFRVVDEEAMEKVPWIPLDPLAPDLTQYPSYSQAQALHCTVRAGEMLYLPALWFHHVQQSHGCIAVNFWYDMEYDLKYSYFQLMDTLTRATGLD
notes: JMJD7, mouse; Crystallised as the fusion; MBP (PDB 1HSJ) was a search model for molecular replacement
B2: JMJD7 (mouse), JMJD7 protein alone generated from GST-JMJD7 fusion protein (enzyme)
chain: B1 chain
notes: JMJD7, mouse; The GST-derived, tag-free form is stated for the crystals; also called mJMJD7; GST-free JMJD7

Experiments:
[1] = biological target: the molecule itself; assay: crystal structure; MBP-JMJD7 (20 mg/ml), vapor diffusion, 100 mM Citrate Sodium, 20% PEG 3350, 4 °C; in the absence of α-KG; two molecules in one asymmetric unit
[2] = biological target: the molecule itself; assay: crystal structure; mJMJD7 (from GST-mJMJD7, tag removed, 10 mg/ml), vapor diffusion, 0.1 M MES monohydrate pH6.0, 10% PEG4000, 4 °C; in the presence of α-KG; two molecules in one asymmetric unit

Row | Protein | stoichiometry N [1] | stoichiometry N [2]
1 | B1 | 2 | –
2 | B2 | – | 2
